The record followed here is FireProtDB (doi:10.1093/protein/gzw068).

The chains are these.
B1: T47H, Q93D82 (parent)
chain: MSTAIVTNVKHFGGMGSALRLSEAGHTVACHDESFKQKDELEAFAETYPQLKPMSEQEPAELIEAVTSAYGQVDVLVSNDIFAPEFQPIDKYAVEDYRGAVEALQIRPFALVNAVASQMKKRKSGHIIFITSATPFGPWKELSTYTSARAGACTLANALSKELGEYNIPVFAIGPNYLHSEDSPYFYPTEPWKTNPEHVAHVKKVTALQRLGTQKELGELVAFLASGSCDYLTGQVFWLAGGFPMIERWPGMPE

The data set covers variants of B1. The note with it: Rhizobium radiobacter; pH 7.7; Thermal; CD; Phosphate 5mM; structure 1PWX; whole UniProt chain shown.

A word on the Tm: it is the temperature at which the thermal transition is half complete. On to T47H, for which the Tm was 63.5 °C and the “change of melting temperature, mutant - wild type (higher = more stable)” value (shortened to “change of melting temperature, mutant”) was -1.5 °C.
As to E190T, the Tm was 66.5 °C and the “change of melting temperature, mutant” value was determined as 1.5 °C.
In the same order, the values of E85Y are 64.5 °C and -0.5 °C.
In the case of A200Y, the midpoint of thermal melting (Tm) is 62.5 °C and the “change of melting temperature, mutant” value was -2.5 °C.
Take N157W: the melting temperature (Tm) stood at 56 °C and the “change of melting temperature, mutant” value is -9 °C.
In the same order, the values of N195V are 59 °C and -6 °C.
As for E61Q, the Tm worked out at 66.5 °C and the “change of melting temperature, mutant” value is 1.5 °C.
Consider T213N, for which the Tm stood at 61.5 °C and the “change of melting temperature, mutant” value was -3.5 °C.
In the same order, the values of C153L are 63 °C and -2 °C.
On to A29L, for which the Tm was 68 °C and the “change of melting temperature, mutant” value was found to be 3 °C.
